Substitutions are numbered along the chain they refer to. In names and notes the source's numbering stands.

To fix the notation:
T1: HIS-tagged human NKG2D (human, UniProt P26718 73-216, limits assumed)
T1 construct: Captured on HIS1K biosensors; not shown: HIS tag
T1 sequence (looked up): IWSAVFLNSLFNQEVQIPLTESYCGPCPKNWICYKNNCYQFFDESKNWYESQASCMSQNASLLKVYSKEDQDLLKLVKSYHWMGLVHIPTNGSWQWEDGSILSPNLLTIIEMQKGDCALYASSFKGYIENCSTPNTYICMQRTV

B1: XENP27603 (antibody, human IgG1, kappa, V domains shown)
VH: EVQLVQSGAEVKKPGESLRISCKASGYTFTSYWMNWVRQMPGKGLEWMGRIDPYDSETHYNPSFQGHVTISVDKSISTAYLQWSSLKASDTAMYYCAKMGDYSFDYWGQGTLVTVSS
VL: DIQLTQSPDSLAVSLGERATINCKASGNIHNYLAWYQQKPGQSPKVLVYNAKTLADGVPSRFSGSGSGTDYTLTISSLQAEDVAVYYCQHFWSTTWTFGGGTKVEIKR
notes: humanized bivalent anti-NKG2D mAb, IgG1 with ablation variants; also called mAb B[NKG2D]_H2L2_IgG1_PVA_/S267K
B2: XENP27604 (antibody, human IgG1, kappa, V domains shown)
VH: EVQLVESGGGLVQPGGSLRLSCAASGYTFTSYWMNWVRQAPGKGLVWVSRIDPYDSETHYNQKVKGRFTISVDKAKSTAYLQMNSLRAEDTAVYYCAKMGDYSFDYWGQGTLVTVSS
VL: DIQLTQSPSSLSASVGDRVTITCRASGNIHNYLAWYQQKPGKSPKVLVYNAKTLADGVPSRFSGSGSGTDYTLTISSLQPEDFATYYCQHFWSTTWTFGGGTKVEIKR
notes: humanized bivalent anti-NKG2D mAb, IgG1 with ablation variants; also called mAb B[NKG2D]_H3L1_IgG1_PVA_/S267K
B3: XENP27605 (antibody, human IgG1, kappa, V domains shown)
VH: B2 VH
VL: B2 VL with T95P
notes: humanized bivalent anti-NKG2D mAb, IgG1 with ablation variants; also called mAb B[NKG2D]_H3_L1.1_IgG1_PVA_/S267K
B4: XENP27606 (antibody, human IgG1, kappa, V domains shown)
VH: B2 VH
VL: B1 VL
notes: humanized bivalent anti-NKG2D mAb, IgG1 with ablation variants; also called mAb B[NKG2D]_H3L2_IgG1_PVA_/S267K
B5: XENP27607 (antibody, human IgG1, kappa, V domains shown)
VH: EVQLVESGGGLVQPGGSLRLSCAVSGFSLTIYGVHWVRQAPGKGLEWVSVIWSGGSTDYNAKVKGRFTISKDNSKRTVYLQMNSLRAEDTAVYYCSRKSHDGYYGVMDYWGQGTTVTVSS
VL: DIQLTQSPDFQSVTPKEKVTITCRASQSIGTSIHWYQQKPDQSPKLLIKYASESISGIPSRFSGSGSGTDFTLTINSLEAEDAATYYCQQSNTWPLTFGAGTKVEIKR
notes: humanized bivalent anti-NKG2D mAb, IgG1 with ablation variants; also called mAb C[NKG2D]_H1L1_IgG1_PVA_/S267K
B6: XENP27608 (antibody, human IgG1, kappa, V domains shown)
VH: B5 VH
VL: DIQLTQSPSSLSASVGDRVTITCRASQSIGTSIHWYQQKPGKSPKLLIKYASESISGIPSRFSGSGSGTDFTLTISSLQPEDFATYYCQQSNTWPLTFGAGTKVEIKR
notes: humanized bivalent anti-NKG2D mAb, IgG1 with ablation variants; also called mAb C[NKG2D]_H1L2_IgG1_PVA_/S267K
B7: XENP27609 (antibody, human IgG1, kappa, V domains shown)
VH: QVQLVQSGAEVKKPGASVKVSCKVSGFSLTIYGVHWVRQAPGQGLEWMGVIWSGGSTDYNAKFQGRVTMTKDNSKRTVYMELSSLRSEDTAVYYCSRKSHDGYYGVMDYWGQGTTVTVSS
VL: B5 VL
notes: humanized bivalent anti-NKG2D mAb, IgG1 with ablation variants; also called mAb C[NKG2D]_H2L1_IgG1_PVA_/S267K
B8: XENP27610 (antibody, human IgG1, kappa, V domains shown)
VH: B7 VH
VL: B6 VL
notes: humanized bivalent anti-NKG2D mAb, IgG1 with ablation variants; also called mAb C[NKG2D]_H2L2_IgG1_PVA_/S267K
B9: XENP26009 (antibody, V domains shown)
VH: QVQLVQSGAEVKKPGASVKVSCKASGFNIKDTYIHWVRQAPGKGLEWMGRIDPDNGETLYASKFQGRVTITADTSINTAYMELSRLRSDDTAVYYCGRGYGYYVFDHWGQGTTVTVSS
VL: AIKMTQSPSSLSASVGDRVTITCRTSRSISKYLAWYQEKPGKTNKLLIYSGSTLQSGIPSRFSGSGSGTDFTLTISSLQPEDFATYYCQQHNENPLTFGAGTKLEIK
notes: also called OKT8_H2.152_L1.103 one-arm mAb
B10: XENP26237 (antibody, V domains shown)
VH: B9 VH with G56D, I70M
VL: B9 VL
notes: also called OKT8_H2.160_L1.103 one-arm mAb
B11: XENP26231 (antibody, V domains shown)
VH: B9 VH with Y102K
VL: B9 VL
notes: also called OKT8_H2.154_L1.103 one-arm mAb
B12: XENP26232 (antibody, V domains shown)
VH: B9 VH with V104Y
VL: B9 VL
notes: also called OKT8_H2.155_L1.103 one-arm mAb
B13: XENP26241 (antibody, V domains shown)
VH: B9 VH with G56D, I70M, Y102K
VL: B9 VL
notes: also called OKT8_H2.164_L1.103 one-arm mAb
B14: XENP26019 (antibody, V domains shown)
VH: B9 VH
VL: B9 VL with K31I, S50K, H91A
notes: also called OKT8_H2.152_L1.113 one-arm mAb
B15: XENP26242 (antibody, V domains shown)
VH: B9 VH with G56D, I70M, V104Y
VL: B9 VL
notes: also called OKT8_H2.165_L1.103 one-arm mAb
B16: XENP26233 (antibody, V domains shown)
VH: B9 VH with Y100W
VL: B9 VL
notes: also called OKT8_H2.156_L1.103 one-arm mAb
B17: XENP26243 (antibody, V domains shown)
VH: B9 VH with G56D, I70M, Y100W
VL: B9 VL
notes: also called OKT8_H2.166_L1.103 one-arm mAb
B18: XENP26235 (antibody, V domains shown)
VH: B9 VH with I70M, V104Y
VL: B9 VL
notes: also called OKT8_H2.158_L1.103 one-arm mAb
B19: XENP26234 (antibody, V domains shown)
VH: B9 VH with I70M, Y102K
VL: B9 VL
notes: also called OKT8_H2.157_L1.103 one-arm mAb
B20: XENP26240 (antibody, V domains shown)
VH: B9 VH with G56D, Y100W
VL: B9 VL
notes: also called OKT8_H2.163_L1.103 one-arm mAb
B21: XENP26239 (antibody, V domains shown)
VH: B9 VH with G56D, V104Y
VL: B9 VL
notes: also called OKT8_H2.162_L1.103 one-arm mAb
B22: XENP26230 (antibody, V domains shown)
VH: B9 VH with I70M
VL: B9 VL
notes: also called OKT8_H2.153_L1.103 one-arm mAb
B23: XENP26238 (antibody, V domains shown)
VH: B9 VH with G56D, Y102K
VL: B9 VL
notes: also called OKT8_H2.161_L1.103 one-arm mAb
B24: XENP26236 (antibody, V domains shown)
VH: B9 VH with I70M, Y100W
VL: B9 VL
notes: also called OKT8_H2.159_L1.103 one-arm mAb

The target in one assay is T1, HIS-tagged human NKG2D. Put plainly: Octet (BLI): His-tagged human NKG2D captured on HIS1K biosensors, dipped into 100 nM bivalent mAb.
In the case of B1, the Kd stood at 0.703 nM, the koff stood at 0.00121 s⁻¹ and the kon came to 1.73e+06 M⁻¹ s⁻¹.
In the case of B2, the Kd was determined as 1.01 nM, the koff was 0.00194 s⁻¹ and the kon is 1.91e+06 M⁻¹ s⁻¹.
For B3, the Kd came to 3.28 nM, the koff amounted to 0.00943 s⁻¹ and the kon amounted to 2.88e+06 M⁻¹ s⁻¹.
Take B4: the Kd worked out at 1.15 nM, the dissociation rate constant (koff) stood at 0.00204 s⁻¹ and the on-rate (kon) came out at 1.77e+06 M⁻¹ s⁻¹.
For B5, the Kd came out at 0.506 nM, the koff came out at 0.000357 s⁻¹ and the kon turned out to be 706000 M⁻¹ s⁻¹.
For B6, in that order: 0.371 nM, 0.000308 s⁻¹ and 832000 M⁻¹ s⁻¹.
The molecule B7 yielded a Kd of 0.167 nM, a koff of 8.64e-05 s⁻¹ and a kon of 518000 M⁻¹ s⁻¹.
Molecule B8 had a Kd of 0.199 nM, a koff of 0.000145 s⁻¹ and a kon of 727000 M⁻¹ s⁻¹.

In the next assay the target is T2, cynomolgus CD8 (captured on the Octet biosensor) (cynomolgus).
T2 construct: Construct not described; also called cyno CD8; cyno CD8a
Put plainly: Octet (BLI); cynomolgus CD8 captured, dipped into multiple concentrations of the one-arm mAb.
B9 displayed a Kd of 77.6 nM, a koff of 0.00909 s⁻¹ and a kon of 117000 M⁻¹ s⁻¹.
The molecule B10 registered a Kd of 67.4 nM, a koff of 0.00767 s⁻¹ and a kon of 114000 M⁻¹ s⁻¹.
The like results for B11 were, in that order, 95.9 nM, 0.00887 s⁻¹ and 92500 M⁻¹ s⁻¹.
For B12, the Kd was determined as 35.7 nM, the koff was 0.0114 s⁻¹ and the kon was determined as 319000 M⁻¹ s⁻¹.
Molecule B13 registered a Kd of 67 nM, a koff of 0.00589 s⁻¹ and a kon of 88000 M⁻¹ s⁻¹.
B14 yielded a Kd of 80.7 nM, a koff of 0.00962 s⁻¹ and an on-rate constant (kon) of 119000 M⁻¹ s⁻¹.
The molecule B15 came in with a Kd of 30 nM, a koff of 0.00968 s⁻¹ and a kon of 322000 M⁻¹ s⁻¹.
The like results for B16 were, in that order, 66.6 nM, 0.0133 s⁻¹ and 200000 M⁻¹ s⁻¹.
As to B17, the Kd was found to be 55.9 nM, the koff was found to be 0.0108 s⁻¹ and the kon is 192000 M⁻¹ s⁻¹.
Molecule B18 yielded a Kd of 33.5 nM, a koff of 0.00477 s⁻¹ and a kon of 143000 M⁻¹ s⁻¹.
For B19, the Kd was found to be 55.6 nM, the koff was determined as 0.00448 s⁻¹ and the kon came out at 80600 M⁻¹ s⁻¹.
For the molecule B20, the Kd is 75.4 nM, the koff was determined as 0.0225 s⁻¹ and the kon was determined as 298000 M⁻¹ s⁻¹.
B21 displayed a Kd of 66.6 nM, a koff of 0.00882 s⁻¹ and a kon of 133000 M⁻¹ s⁻¹.
Consider B22, for which the Kd was determined as 39.2 nM, the koff was 0.00967 s⁻¹ and the kon turned out to be 247000 M⁻¹ s⁻¹.
The like results for B23 were, in that order, 107 nM, 0.00894 s⁻¹ and 83900 M⁻¹ s⁻¹.
For B24, in that order: 55.1 nM, 0.00672 s⁻¹ and 122000 M⁻¹ s⁻¹.

In the next assay the target is T3, human CD8 (captured on the Octet biosensor) (human, UniProt P01732 22-182, limits assumed).
T3 construct: Construct not described; also called recombinant human CD8a
T3 sequence (P01732 22-182 limits assumed): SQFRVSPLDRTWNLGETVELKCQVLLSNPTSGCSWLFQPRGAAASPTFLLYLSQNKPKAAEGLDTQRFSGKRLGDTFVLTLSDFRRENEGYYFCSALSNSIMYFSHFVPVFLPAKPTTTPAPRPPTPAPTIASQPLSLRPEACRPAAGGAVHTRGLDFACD
Put plainly: Octet (BLI); human CD8 captured, dipped into multiple concentrations of the one-arm mAb.
Take B11: the Kd was found to be 95.5 nM, the koff came out at 0.0226 s⁻¹ and the kon is 236000 M⁻¹ s⁻¹.
For B13, in that order: 55.6 nM, 0.0148 s⁻¹ and 265000 M⁻¹ s⁻¹.
For B17, in that order: 3.14 nM, 0.00196 s⁻¹ and 626000 M⁻¹ s⁻¹.
For B18, in that order: 1.38 nM, 0.000992 s⁻¹ and 718000 M⁻¹ s⁻¹.
Take B19: the Kd came to 48.2 nM, the koff is 0.0124 s⁻¹ and the kon was found to be 258000 M⁻¹ s⁻¹.
The like results for B23 were, in that order, 96.6 nM, 0.0262 s⁻¹ and 271000 M⁻¹ s⁻¹.
